From patent US11732029B2, “Methods and compositions for the treatment of wounds” (The University of Chicago, priority 2017, dated 2023)
No end group written: not given here.

Columns and labels:
[1] = test system: full-thickness back-skin wounds in db/db diabetic mice; test: Retention of VEGF-A165 at the wound site; format: in vivo; settings: db/db mouse; fibrin matrix with 200 ng VEGF-A165/wound; 3 days after treatment; vs without peptide
Experimental: Retention assays were performed as previously reported^1. Briefly, C57BLKS/J-m/Lepr db (db/db) mice ages 10 to 11 wks were used. Their backs were shaved and four full-thickness punch-biopsy wounds (6 mm in diameter) were created in each mouse. Directly after, fibrin matrices [80 μL total, fibrinogen (10 mg/mL), 2 U/mL human thrombin, 4 U/mL factor XIII, 5 mM calcium chloride, 2 μM α2PI1-8-α33043-3067, 200 ng of recombinant human VEGF-A165] were polymerized on the wounds. To avoid drying of the matrices, the wounds were covered with non-adhering dressing (Adaptic, Johnson & Johnson), and then with adhesive film dressing (Hydrofilm, Hartmann). After 3 or 6 days, mice were sacrificed. The wounds were punched again, in order to recover the fibrinous matrices. Moreover, the tissue surrounding the wounds (2 mm beyond the wound margin) was removed. The tissue was transferred in 0.9 mL of tissue T-PER Tissue Protein Extraction Reagent (Thermo Scientific) containing 1 mg/mL of collagenase IV (Sigma-Aldrich), and homogenized with a tissue homogenizer. […] Recombinant human VEGF-A165 remaining in the fibrinous matrix and in the tissue surrounding the wound were quantified by ELISA (DuoSet, R&D Systems), using 200 ng of recombinant human VEGF-A165 as 100%.

vWF binding to the GFs = vWF binding to the GFs (Homo sapiens, UniProt P04275); test: Inhibition of vWF-GF binding by heparin (ELISA); settings: excess (10 μM) heparin; VEGF-A165, PlGF-2 or FGF-2
Experimental: ELISA plates (med-binding) were coated with 10 μg/mL vWF. Then, wells were blocked with 2% BSA-containing PBS-T and further incubated with 1 μg/mL each of VEGF-A, PlGF-2, or FGF-2 for 60 min at room temperature (RT) with 10 μM heparin. Next, the wells were incubated with biotinylated anti-VEGF-A, anti-PlGF, or anti-FGF-2 antibodies (R & D Systems). The antibodies were detected by streptavidin-HRP (R & D Systems). Color development and the absorbance measurement were done as described above.

GF binding to laminin = test: Inhibition of laminin-GF binding by heparin (ELISA); settings: heparin added in excess (10 μM); VEGF-A165, PlGF-2 or FGF-2
Experimental: ELISA plates (med-binding) were coated with 10 μg/mL laminin isoforms (−111, −211, −221, −411, −421, −511, and −521) in PBS for 2 hrs at 37° C. Then, wells were blocked with 2% BSA-containing PBS-T and further incubated with 1 μg/mL each of VEGF-A165, PlGF-2, or FGF-2 for 60 min at RT with 10 μM heparin. Next, the wells were incubated with biotinylated anti-VEGF, anti-PlGF, or anti-FGF-2 antibodies (R&D Systems). The antibodies were detected by streptavidin-HRP (R&D Systems).

CXCL-11 = target: T1, CXCL-11 (Homo sapiens, UniProt O14625); test: Laminin binding to recombinant GFs (ELISA); settings: ELISA A450 nm; signals greater than 0.1 = binding
T1 construct: All growth factors (GFs) and chemokines were purchased in their mature forms; purchased PeproTech; host or cells: Escherichia coli
T1 sequence (O14625 22-94): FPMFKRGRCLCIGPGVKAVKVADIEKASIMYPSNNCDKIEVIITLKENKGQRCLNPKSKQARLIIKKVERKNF
Experimental: (§1) ELISA tests were performed as previously reported. In brief, ELISA plates (med-binding, Greiner Bio-One) were coated with 50 nM GFs at 37° C. for more than 2 hrs. After blocking with 2% BSA solution containing PBS and 0.05% Tween 20 (PBS-T), 10 nM recombinant human laminin isoforms (−111, −211, −332, −411, −421, −511, and −521) (>95% purity tested by SDS-PAGE, BioLamina) were added. Bound laminin was detected with rabbit anti-human laminin γ1 chain antibody (1:1000 dilution, Assay biotech) or rabbit anti-human laminin α3 chain antibody (1:1000 dilution, Assay biotech). After incubation with biotinylated anti-rabbit antibody for 60 min at room temperature (RT), HRP conjugated streptavidin (Jackson ImmunoResearch) was added. After 60 min of incubation at RT, 50 μL TMB substrate (Sigma-Aldrich) was added. The reactions were stopped by adding 25 μL of 2N H2SO4. Subsequently, the absorbance at 450 nm was measured with a reference of 570 nm.

CXCL-12α = target: T2, CXCL-12α (Homo sapiens, UniProt P48061); test: Laminin binding to recombinant GFs (ELISA); settings: ELISA A450 nm; signals greater than 0.1 = binding
T2 construct: All GFs and chemokines were purchased in their mature forms; purchased PeproTech; host or cells: Escherichia coli
Experimental: as §1

PlGF-2 [2] = target: T3, PlGF-2 (Homo sapiens, UniProt P49763); test: Surface plasmon resonance, laminin against GF; parameters: All GFs and chemokines were purchased in their mature forms; purchased PeproTech; host or cells: Escherichia coli; settings: SPR; laminin protein immobilized on chip, GF flowed; Langmuir binding kinetics
T3 sequence (P49763 19-170 isoform P49763-3 limits assumed): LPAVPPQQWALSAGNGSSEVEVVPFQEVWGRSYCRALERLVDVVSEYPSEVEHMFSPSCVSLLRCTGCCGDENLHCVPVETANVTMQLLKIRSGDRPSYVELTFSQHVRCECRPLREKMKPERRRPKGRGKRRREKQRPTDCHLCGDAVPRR
Experimental: (§2) SPR analysis was performed as described previously^2. In brief, measurements were made with a Biacore 3000 SPR system (GE Healthcare). Laminin-521 or laminin α32928-3150 was immobilized via amine coupling on a C1 chip (GE Healthcare) for ˜2000 or ˜1000 resonance units (RU), respectively, according to the manufacturer's instructions. VEGF-A165, PDGF-BB, or PlGF-2 was flowed at increasing concentrations in the running buffer at 20 μL/min. The sensor chip was regenerated with 50 mM NaOH for every cycle. Specific bindings of GFs to laminin were calculated by comparison to a non-functionalized channel used as a reference. Experimental results were fitted with Langmuir binding kinetics using BIAevaluation software (GE Healthcare).

VEGF-A165 [3] = target: T4, VEGF-A165 (Homo sapiens, UniProt P15692); test: Surface plasmon resonance, laminin against GF; settings: SPR; laminin protein immobilized on chip, GF flowed; Langmuir binding kinetics
T4 construct: All growth factors (GFs) and chemokines were purchased in their mature forms; purchased PeproTech; host or cells: Escherichia coli
T4 sequence (P15692 27-191 isoform P15692-4 limits assumed): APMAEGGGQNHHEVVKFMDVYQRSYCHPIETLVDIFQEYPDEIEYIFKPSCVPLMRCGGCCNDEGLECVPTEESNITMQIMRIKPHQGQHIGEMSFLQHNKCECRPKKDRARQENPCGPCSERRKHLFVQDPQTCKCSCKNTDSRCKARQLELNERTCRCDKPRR
Experimental: as §2

PDGF-BB [4] = target: T5, PDGF-BB (Homo sapiens, UniProt P01127); test: Surface plasmon resonance, laminin against GF; settings: SPR; laminin protein immobilized on chip, GF flowed; Langmuir binding kinetics
T5 construct: All growth factors (GFs) and chemokines were purchased in their mature forms; purchased PeproTech; host or cells: Escherichia coli
Experimental: as §2

VEGF-A165 [5] = target: T4, VEGF-A165; test: vWF binding to recombinant VEGF-A isoforms (ELISA); settings: plate coated with 50 nM vWF domains, 1 μg/mL VEGF-A, vs BSA
Experimental: (§3) ELISA was performed as previously reported1. In brief, ELISA plates (med binding: Greiner Bio-One) were coated with 50 nM BSA (GE Healthcare), pro-peptide containing recombinant vWF (Sino Biological), plasma-derived vWF (EMD Millipore), recombinant human vWF A1 domain (U-Protein Express), recombinant human vWF A2 domain (R & D systems), recombinant human vWF A3 domain (U-Protein Express), vWF A1 HBD peptide or scrambled/mutated HBD peptide (all peptides were synthesized by Genscript). After blocking with 2% BSA solution containing PBS-T, 1 μg/mL of recombinant human VEGF-A121 (PeproTech), recombinant human VEGF-A145 (R & D Systems), or recombinant human VEGF-A165 (PeproTech) was added. Bound VEGF-A was detected with 1 μg/mL of mouse anti-human VEGF-A antibody (clone: 26503, R & D systems). After 60 min of incubation, horseradish peroxidase (HRP) conjugated goat anti-mouse antibody (1:2000 dilution, Dako) was added and incubated for another 60 min. Color development and the absorbance measurement were done as described above.

VEGF-A145 = target: T6, VEGF-A145 (Homo sapiens, UniProt P15692); test: vWF binding to recombinant VEGF-A isoforms (ELISA); settings: plate coated with 50 nM vWF domains, 1 μg/mL VEGF-A, vs BSA
T6 construct: All GFs and chemokines were purchased in their mature forms; purchased R & D Systems
T6 sequence (P15692 27-171 isoform P15692-6 limits assumed): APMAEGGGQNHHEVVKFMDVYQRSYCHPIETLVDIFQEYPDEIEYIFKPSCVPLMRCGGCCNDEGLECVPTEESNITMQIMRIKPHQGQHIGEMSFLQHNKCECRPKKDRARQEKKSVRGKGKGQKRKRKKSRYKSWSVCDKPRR
Experimental: as §3

VEGF-A165 [6] = target: T4, VEGF-A165; test: Recombinant GF binding to the vWF recombinant protein and A1 HBD peptide (ELISA); settings: plate coated with vWF protein, A1 domain or HBD peptide, 1 μg/mL GF
Experimental: (§4) ELISA tests were performed as described above. In brief, ELISA plates were coated with 1 μg/mL of FL-vWF (WT or R1341Q), 1 μg/mL of vWF A1 recombinant protein (U-Protein Express) or 1 μg/mL of vWF A1 HBD peptide (sequence […], (SEQ ID NO:50) chemically synthesized by Genscript) at 37° C. overnight. After blocking with 2% BSA solution containing PBS-T, 1 μg/mL of the recombinant human proteins VEGF-A121, VEGF-A165, PlGF-1, PlGF-2, PDGF-BB, FGF-2, CXCL-12α and CXCL-12γ were added. 1 μg/mL of BSA served as non-binding protein control. Bound GF or chemokine was detected with biotinylated antibodies for human VEGF-A, PlGF, PDGF-BB, FGF-2, or CXCL-12 (R & D Systems). The antibodies were detected by streptavidin-HRP (R & D Systems). Color development and the absorbance measurement were done as described above.

CXCL-12γ = target: T7, CXCL-12γ (Homo sapiens, UniProt P48061); test: as above; settings: plate coated with vWF protein, A1 domain or HBD peptide, 1 μg/mL GF
T7 construct: All GFs and chemokines were purchased in their mature forms; purchased R & D Systems; host or cells: Escherichia coli
Experimental: as §4

PDGF-BB [7] = target: T5, PDGF-BB; test: as above; settings: plate coated with vWF protein, A1 domain or HBD peptide, 1 μg/mL GF
Experimental: as §4

FGF-2 = FGF-2 (Homo sapiens, UniProt P09038); test: as above; parameters: All growth factors (GFs) and chemokines were purchased in their mature forms; purchased PeproTech; host or cells: Escherichia coli; settings: plate coated with vWF protein, A1 domain or HBD peptide, 1 μg/mL GF
Experimental: as §4

PlGF-2 [8] = target: T3, PlGF-2; test: as above; parameters: All growth factors (GFs) and chemokines were purchased in their mature forms; purchased PeproTech; host or cells: Escherichia coli; settings: plate coated with vWF protein, A1 domain or HBD peptide, 1 μg/mL GF
Experimental: as §4

T5 sequence (P01127 82-190 limits assumed): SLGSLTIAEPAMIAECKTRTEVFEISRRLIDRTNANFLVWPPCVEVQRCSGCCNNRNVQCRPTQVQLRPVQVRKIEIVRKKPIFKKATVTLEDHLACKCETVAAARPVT
T2 sequence (P48061 22-89 limits assumed): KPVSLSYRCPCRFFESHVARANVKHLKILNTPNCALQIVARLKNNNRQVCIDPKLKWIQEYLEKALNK
Sequence of vWF binding to the GFs (P04275 764-2813 limits assumed): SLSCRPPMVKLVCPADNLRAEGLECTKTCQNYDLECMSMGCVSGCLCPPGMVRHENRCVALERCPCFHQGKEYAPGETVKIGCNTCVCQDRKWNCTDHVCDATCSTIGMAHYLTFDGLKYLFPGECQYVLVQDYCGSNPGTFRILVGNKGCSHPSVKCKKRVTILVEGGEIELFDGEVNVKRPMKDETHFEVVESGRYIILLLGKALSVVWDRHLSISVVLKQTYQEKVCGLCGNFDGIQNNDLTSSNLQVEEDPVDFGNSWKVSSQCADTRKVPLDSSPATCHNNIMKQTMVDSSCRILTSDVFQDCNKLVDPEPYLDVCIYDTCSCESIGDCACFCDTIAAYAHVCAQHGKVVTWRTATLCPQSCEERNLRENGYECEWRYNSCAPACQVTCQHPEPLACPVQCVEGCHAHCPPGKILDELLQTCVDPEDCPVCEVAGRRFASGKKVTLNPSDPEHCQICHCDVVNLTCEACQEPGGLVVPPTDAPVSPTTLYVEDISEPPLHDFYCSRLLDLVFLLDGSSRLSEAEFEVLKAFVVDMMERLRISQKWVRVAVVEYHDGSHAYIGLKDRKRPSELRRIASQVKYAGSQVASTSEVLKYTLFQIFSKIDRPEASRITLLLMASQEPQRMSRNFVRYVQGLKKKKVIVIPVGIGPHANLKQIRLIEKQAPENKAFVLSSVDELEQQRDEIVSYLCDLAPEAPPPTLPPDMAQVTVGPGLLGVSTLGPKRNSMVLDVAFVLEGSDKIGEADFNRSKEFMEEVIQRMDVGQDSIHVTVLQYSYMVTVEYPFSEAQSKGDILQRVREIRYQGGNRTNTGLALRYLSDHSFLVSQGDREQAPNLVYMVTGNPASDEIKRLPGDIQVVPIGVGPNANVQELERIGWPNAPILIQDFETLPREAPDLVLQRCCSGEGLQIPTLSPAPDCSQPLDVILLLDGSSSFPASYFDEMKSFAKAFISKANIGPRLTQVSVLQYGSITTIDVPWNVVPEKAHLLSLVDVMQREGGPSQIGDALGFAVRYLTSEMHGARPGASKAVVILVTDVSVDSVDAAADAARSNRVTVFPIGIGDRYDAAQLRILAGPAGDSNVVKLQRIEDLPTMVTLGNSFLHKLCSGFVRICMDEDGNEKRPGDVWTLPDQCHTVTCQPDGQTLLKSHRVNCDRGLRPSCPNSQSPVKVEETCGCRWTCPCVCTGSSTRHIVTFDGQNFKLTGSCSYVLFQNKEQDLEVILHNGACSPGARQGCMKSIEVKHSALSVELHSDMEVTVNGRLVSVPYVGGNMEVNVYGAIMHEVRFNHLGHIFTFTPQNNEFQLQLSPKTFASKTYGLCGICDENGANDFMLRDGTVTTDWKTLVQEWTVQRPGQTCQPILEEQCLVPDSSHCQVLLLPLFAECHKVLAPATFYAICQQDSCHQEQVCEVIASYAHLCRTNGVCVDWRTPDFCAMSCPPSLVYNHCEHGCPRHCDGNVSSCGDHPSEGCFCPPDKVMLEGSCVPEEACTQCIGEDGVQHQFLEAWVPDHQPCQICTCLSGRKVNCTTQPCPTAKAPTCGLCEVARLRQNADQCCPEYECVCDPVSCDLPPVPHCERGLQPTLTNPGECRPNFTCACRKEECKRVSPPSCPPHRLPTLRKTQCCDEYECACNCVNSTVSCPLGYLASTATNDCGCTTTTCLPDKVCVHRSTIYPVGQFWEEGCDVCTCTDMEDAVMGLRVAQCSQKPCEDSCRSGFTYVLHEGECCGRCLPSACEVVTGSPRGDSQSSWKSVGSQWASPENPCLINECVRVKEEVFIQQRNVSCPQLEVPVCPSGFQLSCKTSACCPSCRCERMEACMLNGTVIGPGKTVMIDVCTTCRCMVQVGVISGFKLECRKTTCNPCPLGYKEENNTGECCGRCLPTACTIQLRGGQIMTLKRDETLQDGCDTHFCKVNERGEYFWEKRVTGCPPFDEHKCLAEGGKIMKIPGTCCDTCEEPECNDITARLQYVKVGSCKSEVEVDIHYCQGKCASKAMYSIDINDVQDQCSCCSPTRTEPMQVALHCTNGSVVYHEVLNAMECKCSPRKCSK
T7 sequence (P48061 22-119 isoform P48061-3): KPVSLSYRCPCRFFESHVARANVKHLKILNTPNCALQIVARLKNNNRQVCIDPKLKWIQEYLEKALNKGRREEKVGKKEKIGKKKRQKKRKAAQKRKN
Sequence of FGF-2 (P09038 143-288): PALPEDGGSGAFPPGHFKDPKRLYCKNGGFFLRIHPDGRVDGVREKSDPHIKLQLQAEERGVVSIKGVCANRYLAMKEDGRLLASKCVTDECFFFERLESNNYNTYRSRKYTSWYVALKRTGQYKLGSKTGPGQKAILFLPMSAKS

Q: For “NQEQVSPLRLVFALGTDGKKLRIKSKEKCNDGK [α2PI1-8-α33043-3067]”, which “amount of VEGF-A165 remaining in the wounds” value [1] is on record?
A: significantly enhanced

Q: What does the source list for heparin?
A: inhibition of vWF binding to the GFs (vWF binding to the GFs): inhibited vWF binding to the GFs; inhibition of GF binding to laminin (GF binding to laminin): inhibited GF binding to laminin

Q: With “laminin-332: recombinant human full-length laminin isoform -332 (BioLamina)” as the substance, how does the “binding of laminin to CXCL-11” value (CXCL-11) read?
A: bound weakly

Q: What about the “binding of laminin to CXCL-12a” value (CXCL-12α) of the same substance?
A: bound weakly

Q: For “laminin-521: recombinant human full-length laminin isoform -521 (BioLamina)”, which Kd (PlGF-2 [2]) is on record?
A: 12.9 nM

Q: And the Kd (VEGF-A165 [3])?
A: 5.8 nM

Q: And the Kd (PDGF-BB [4])?
A: 24.2 nM

Q: For “recombinant A1 domain: recombinant human vWF A1 domain (U-Protein Express)”, which “binding to VEGF-A165” value (VEGF-A165 [5]) is on record?
A: bound

Q: What about the “binding to VEGF-A145” value (VEGF-A145) of the same substance?
A: bound

Q: What about the “binding to VEGF-A165” value (VEGF-A165 [6]) of the same substance?
A: strong binding

Q: And the “binding to CXCL-12γ” value (CXCL-12γ)?
A: strong binding

Q: What about the “binding to PDGF-BB” value (PDGF-BB [7]) of the same substance?
A: strong binding

Q: And the “binding to FGF-2” value (FGF-2)?
A: strong binding

Q: And the “binding to PlGF-2” value (PlGF-2 [8])?
A: strong binding
